Positions count from the first letter of the chain named.
T1: Human PTK7 Protein, His Tag (Acro Biosystems) (human, UniProt Q13308 31-704)
T1 construct: Bought recombinant protein; also called CCK4; tyrosine-protein kinase-like 7; not shown: His tag
T1 sequence: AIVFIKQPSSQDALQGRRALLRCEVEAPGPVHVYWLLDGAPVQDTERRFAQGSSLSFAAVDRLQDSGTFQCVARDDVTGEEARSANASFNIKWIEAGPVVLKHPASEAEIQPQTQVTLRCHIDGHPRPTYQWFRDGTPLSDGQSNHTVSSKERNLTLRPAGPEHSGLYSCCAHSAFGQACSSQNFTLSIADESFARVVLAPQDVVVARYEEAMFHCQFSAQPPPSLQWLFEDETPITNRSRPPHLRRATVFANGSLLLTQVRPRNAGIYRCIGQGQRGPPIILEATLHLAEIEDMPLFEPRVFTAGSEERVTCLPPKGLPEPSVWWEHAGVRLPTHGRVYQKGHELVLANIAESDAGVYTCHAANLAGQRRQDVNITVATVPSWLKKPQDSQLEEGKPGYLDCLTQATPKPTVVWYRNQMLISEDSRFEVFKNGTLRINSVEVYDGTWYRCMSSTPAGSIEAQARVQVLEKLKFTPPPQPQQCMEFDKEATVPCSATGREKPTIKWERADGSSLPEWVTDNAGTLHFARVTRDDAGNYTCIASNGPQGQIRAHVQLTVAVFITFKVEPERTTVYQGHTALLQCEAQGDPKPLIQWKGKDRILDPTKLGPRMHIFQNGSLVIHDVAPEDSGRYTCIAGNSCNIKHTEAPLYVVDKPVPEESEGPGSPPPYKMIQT

T2: Human PTK7 Protein, His Tag, Acro Biosystems (human, UniProt Q13308 31-704)
T2 construct: Bought recombinant protein; also called CCK4; not shown: His tag
T2 sequence: T1 sequence

B1: MYT11345 (antibody, V domains shown)
VH: EVQLVESGGGLVQPGGSLRLSCTASGIDLSNHAVIWVRQAPGKGLEWVGIIYTYDTTYYANWAKGRFTISRDTSKNTVYLQMNSLRAEDTAVYFCARSFSDISDLIKLWGQGTLVTVSS
VL: EIVMTQSPSTLSASVGDRVIITCQASQSLYNNKDLAWYQQKPGKAPKLLIYEASKLASGVPSRFSGSGSGAEFTLTISSLQPDDFATYYCLGEFSCGSGDCLAFGQGTKLTVL
notes: MYT9797 HC variant; captured via anti-human Fc
B2: MYT11368 (antibody, V domains shown)
VH: B1 VH with H32Y, F99H
VL: B1 VL
notes: as for B1
B3: MYT11361 (antibody, V domains shown)
VH: B1 VH with H32Y, W62H
VL: B1 VL
notes: as for B1
B4: MYT11386 (antibody, V domains shown)
VH: B1 VH with H32Y
VL: B1 VL with Q27H
notes: MYT9797 LC variant; captured via anti-human Fc
B5: MYT11350 (antibody, V domains shown)
VH: B1 VH with H32Y, I51H
VL: B1 VL
notes: as for B1
B6: MYT11401 (antibody, V domains shown)
VH: B1 VH with H32Y
VL: B1 VL with A57H
notes: as for B4
B7: MYT11347 (antibody, V domains shown)
VH: B1 VH with H32Y, V34H
VL: B1 VL
notes: as for B1
B8: MYT11362 (antibody, V domains shown)
VH: B1 VH with H32Y, A63H
VL: B1 VL
notes: as for B1
B9: MYT11402 (antibody, V domains shown)
VH: B1 VH with H32Y
VL: B1 VL with S58H
notes: as for B4
B10: MYT11359 (antibody, V domains shown)
VH: B1 VH with H32Y, A60H
VL: B1 VL
notes: as for B1
B11: MYT11419 (antibody, V domains shown)
VH: B1 VH with H32Y
VL: B1 VL with E93A
notes: MYT9797 LC alanine variant; captured via anti-human Fc
B12: MYT11413 (antibody, V domains shown)
VH: B1 VH with H32Y
VL: B1 VL with A103H
notes: as for B4
B13: MYT11400 (antibody, V domains shown)
VH: B1 VH with H32Y
VL: B1 VL with L56H
notes: as for B4
B14: MYT11399 (antibody, V domains shown)
VH: B1 VH with H32Y
VL: B1 VL with K55H
notes: as for B4
B15: MYT11348 (antibody, V domains shown)
VH: B1 VH with H32Y, I35H
VL: B1 VL
notes: as for B1
B16: MYT11358 (antibody, V domains shown)
VH: B1 VH with H32Y, Y59H
VL: B1 VL
notes: as for B1
B17: MYT11377 (antibody, V domains shown)
VH: B1 VH with H32Y, L108H
VL: B1 VL
notes: as for B1
B18: MYT11383 (antibody, V domains shown)
VH: B1 VH with H32Y
VL: B1 VL with Q24H
notes: as for B4
B19: MYT11387 (antibody, V domains shown)
VH: B1 VH with H32Y
VL: B1 VL with S28H
notes: as for B4
B20: MYT11375 (antibody, V domains shown)
VH: B1 VH with H32Y, I106H
VL: B1 VL
notes: as for B1
B21: MYT11403 (antibody, V domains shown)
VH: B1 VH with H32Y
VL: B1 VL with L91H
notes: as for B4
B22: MYT11360 (antibody, V domains shown)
VH: B1 VH with H32Y, N61H
VL: B1 VL
notes: as for B1
B23: MYT11408 (antibody, V domains shown)
VH: B1 VH with H32Y
VL: B1 VL with G97H
notes: as for B4
B24: MYT11364 (antibody, V domains shown)
VH: B1 VH with H32Y, G65H
VL: B1 VL
notes: as for B1
B25: MYT11366 (antibody, V domains shown)
VH: B1 VH with H32Y, R97H
VL: B1 VL
notes: as for B1
B26: MYT11420 (antibody, V domains shown)
VH: B1 VH with H32Y
VL: B1 VL with D100A
notes: as for B11
B27: MYT11391 (antibody, V domains shown)
VH: B1 VH with H32Y
VL: B1 VL with N32H
notes: as for B4
B28: MYT11385 (antibody, V domains shown)
VH: B1 VH with H32Y
VL: B1 VL with S26H
notes: as for B4
B29: MYT11414 (antibody, V domains shown)
VH: B1 VH with H32Y
VL: B1 VL with T111E, V112I, L113K
notes: captured via anti-human Fc
B30: MYT11379 (antibody, V domains shown)
VH: B1 VH with D28A, H32Y
VL: B1 VL
notes: MYT9797 HC alanine variant; captured via anti-human Fc
B31: MYT10885 (antibody, V domains shown)
VH: EVQLVESGGGLVQPGGSLRLSCTASHFSLSNYVMNWVRQAPGKGLEWVGIIDSSGSTYYASWAKGRFTISRDTSKNTVYLQMNSLRAEDTAVYFCARGLYLWGQGTLVTVSS
VL: EIVMTQSPSTLSASVGDRVIITCQSSQSVYNNNLLAWYQQKPGKAPKLLIYYTSNLASGVPSRFSGSGSGAEFTLTISSLQPDDFATYYCQGGYNGNIYAFGQGTKLTVL
notes: MYT9345 variant, His at VH pos 26 (H1 01)
B32: MYT10890 (antibody, V domains shown)
VH: B31 VH with H26G, N31H
VL: B31 VL
notes: MYT9345 variant, His at VH pos 31 (H1 06)
B33: MYT10894 (antibody, V domains shown)
VH: B31 VH with H26G, N35H
VL: B31 VL
notes: MYT9345 variant, His at VH pos 35 (H1 10)
B34: MYT10887 (antibody, V domains shown)
VH: B31 VH with H26G, S28H
VL: B31 VL
notes: MYT9345 variant, His at VH pos 28 (H1 03)
B35: MYT10893 (antibody, V domains shown)
VH: B31 VH with H26G, M34H
VL: B31 VL
notes: MYT9345 variant, His at VH pos 34 (H1 09)
B36: MYT10901 (antibody, V domains shown)
VH: B31 VH with H26G, S56H
VL: B31 VL
notes: MYT9345 variant, His at VH pos 56 (H2 07)
B37: MYT10886 (antibody, V domains shown)
VH: B31 VH with H26G, F27H
VL: B31 VL
notes: MYT9345 variant, His at VH pos 27 (H1 02)
B38: MYT10902 (antibody, V domains shown)
VH: B31 VH with H26G, T57H
VL: B31 VL
notes: MYT9345 variant, His at VH pos 57 (H2 08)
B39: MYT10900 (antibody, V domains shown)
VH: B31 VH with H26G, G55H
VL: B31 VL
notes: MYT9345 variant, His at VH pos 55 (H2 06)

Columns and labels:
[1] = target: T1, Human PTK7 Protein, His Tag (Acro …); test: BLI, antibody on anti-human Fc sensor, 50 nM PTK7 at pH 7.4, dissociation at pH 7.4 or 5.4; 2 = substantially similar binding relative to parent
[2] = target: T2, Human PTK7 Protein, His Tag, Acro …; test: BLI (Octet), antibody on anti-human Fc sensor, 50 nM PTK7 at pH 7.4, dissociation at pH 7.4 or 5.4; 2 = substantially similar binding relative to parent

Binder	binding result [1]	binding result [2]
B1	binds	–
B2	binds	–
B3	binds	–
B4	binds	–
B5	binds	–
B6	binds	–
B7	binds	–
B8	binds	–
B9	binds	–
B10	binds	–
B11	binds	–
B12	binds	–
B13	binds	–
B14	binds	–
B15	binds	–
B16	binds	–
B17	binds	–
B18	binds	–
B19	binds	–
B20	binds	–

Binder	binding result [1]	binding result [2]
B21	binds	–
B22	binds	–
B23	binds	–
B24	binds	–
B25	binds	–
B26	binds	–
B27	binds	–
B28	binds	–
B29	binds	–
B30	binds	–
B31	–	binds
B32	–	binds
B33	–	binds
B34	–	binds
B35	–	binds
B36	–	binds
B37	–	binds
B38	–	binds
B39	–	binds
